Experimental data: paper PMC3240612, “Quantitative Multicolor Super-Resolution Microscopy Reveals Tetherin HIV-1 Interaction” (PLoS Pathogens, 2011)

Legend:
[1] = target: T1, HA-tetherin (N-terminal HA-tagged tetherin), in virions released by PI-PLC (human), Q10589; conditions: remark: other sources report otherwise
T1 chain: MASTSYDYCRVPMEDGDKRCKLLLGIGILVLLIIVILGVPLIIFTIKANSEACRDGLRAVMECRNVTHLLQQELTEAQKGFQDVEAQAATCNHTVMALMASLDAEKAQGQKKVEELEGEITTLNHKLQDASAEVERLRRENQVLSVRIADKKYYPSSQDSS

[2] = target: T2, tetherin-HA (HA tag inserted after the extracellular coiled-coil domain), in virions released by PI-PLC (human), Q10589; conditions: remark: other sources report otherwise
T2 chain: T1 chain

[3] = target: the molecule itself; assay: non-reducing against reducing SDS-PAGE with Western blot; virions stripped from 293T cells by subtilisin A (0, 5 or 50 µg/ML), pelleted through sucrose, lysed in RIPA; anti-HA blot without βME and with βME

B1: HA-tetherin (N-terminal HA-tagged tetherin), in virions released by PI-PLC, Q10589 1-161 (natural protein)
chain: T1 chain
modifications: here or on the partner: C-terminal GPI anchor, cut by PI-PLC; C-terminal GPI anchor, cut by PI-PLC
stoichiometry N [1]: 2

B2: tetherin-HA (HA tag inserted after the extracellular coiled-coil domain), in virions released by PI-PLC, Q10589 1-161 (natural protein)
chain: T1 chain
modifications: here or on the partner: C-terminal GPI anchor, cut by PI-PLC; C-terminal GPI anchor, cut by PI-PLC
stoichiometry N [2]: 2

B3: N-terminal fragment of HA-tetherin left inside virions after subtilisin A treatment (domain or fragment, human, UniProt Q10589 1-67, looked up)
chain: MASTSYDYCRVPMEDGDKRCKLLLGIGILVLLIIVILGVPLIIFTIKANSEACRDGLRAVMECRNVT
notes: tetherin (CD317, BST-2, HM1.24), human, Swiss-Prot Q10589; N-terminal fragment left after subtilisin A cleavage; Disulfide-linked dimer: ~26 kDa without βME, ~13 kDa with βME; also called dimeric N-termini; HA fragment of ~26 kDa (non-reducing), ~13 kDa (reducing); source: 293T, transfected with HIV-1 Δvpu and HA-tetherin; cells treated with subtilisin A; released virions pelleted through sucrose …
stoichiometry N [3]: 2
